Reference: paper PMC2275626
pKi: −log10 of the molar value. Where “and” joins values, the source holds several entries; their conditions need not be identical. Equal entries are not always repeated.

Biological target: acetamidofluorescein-F-actin on antifluorescein IgG-Sephacryl S-1000 beads (rabbit) (UniProt P68135)
Assay: co-sedimentation

myosin subfragment-1 (domain or fragment), sequence (Q28641 whole entry, the tested form may be a part): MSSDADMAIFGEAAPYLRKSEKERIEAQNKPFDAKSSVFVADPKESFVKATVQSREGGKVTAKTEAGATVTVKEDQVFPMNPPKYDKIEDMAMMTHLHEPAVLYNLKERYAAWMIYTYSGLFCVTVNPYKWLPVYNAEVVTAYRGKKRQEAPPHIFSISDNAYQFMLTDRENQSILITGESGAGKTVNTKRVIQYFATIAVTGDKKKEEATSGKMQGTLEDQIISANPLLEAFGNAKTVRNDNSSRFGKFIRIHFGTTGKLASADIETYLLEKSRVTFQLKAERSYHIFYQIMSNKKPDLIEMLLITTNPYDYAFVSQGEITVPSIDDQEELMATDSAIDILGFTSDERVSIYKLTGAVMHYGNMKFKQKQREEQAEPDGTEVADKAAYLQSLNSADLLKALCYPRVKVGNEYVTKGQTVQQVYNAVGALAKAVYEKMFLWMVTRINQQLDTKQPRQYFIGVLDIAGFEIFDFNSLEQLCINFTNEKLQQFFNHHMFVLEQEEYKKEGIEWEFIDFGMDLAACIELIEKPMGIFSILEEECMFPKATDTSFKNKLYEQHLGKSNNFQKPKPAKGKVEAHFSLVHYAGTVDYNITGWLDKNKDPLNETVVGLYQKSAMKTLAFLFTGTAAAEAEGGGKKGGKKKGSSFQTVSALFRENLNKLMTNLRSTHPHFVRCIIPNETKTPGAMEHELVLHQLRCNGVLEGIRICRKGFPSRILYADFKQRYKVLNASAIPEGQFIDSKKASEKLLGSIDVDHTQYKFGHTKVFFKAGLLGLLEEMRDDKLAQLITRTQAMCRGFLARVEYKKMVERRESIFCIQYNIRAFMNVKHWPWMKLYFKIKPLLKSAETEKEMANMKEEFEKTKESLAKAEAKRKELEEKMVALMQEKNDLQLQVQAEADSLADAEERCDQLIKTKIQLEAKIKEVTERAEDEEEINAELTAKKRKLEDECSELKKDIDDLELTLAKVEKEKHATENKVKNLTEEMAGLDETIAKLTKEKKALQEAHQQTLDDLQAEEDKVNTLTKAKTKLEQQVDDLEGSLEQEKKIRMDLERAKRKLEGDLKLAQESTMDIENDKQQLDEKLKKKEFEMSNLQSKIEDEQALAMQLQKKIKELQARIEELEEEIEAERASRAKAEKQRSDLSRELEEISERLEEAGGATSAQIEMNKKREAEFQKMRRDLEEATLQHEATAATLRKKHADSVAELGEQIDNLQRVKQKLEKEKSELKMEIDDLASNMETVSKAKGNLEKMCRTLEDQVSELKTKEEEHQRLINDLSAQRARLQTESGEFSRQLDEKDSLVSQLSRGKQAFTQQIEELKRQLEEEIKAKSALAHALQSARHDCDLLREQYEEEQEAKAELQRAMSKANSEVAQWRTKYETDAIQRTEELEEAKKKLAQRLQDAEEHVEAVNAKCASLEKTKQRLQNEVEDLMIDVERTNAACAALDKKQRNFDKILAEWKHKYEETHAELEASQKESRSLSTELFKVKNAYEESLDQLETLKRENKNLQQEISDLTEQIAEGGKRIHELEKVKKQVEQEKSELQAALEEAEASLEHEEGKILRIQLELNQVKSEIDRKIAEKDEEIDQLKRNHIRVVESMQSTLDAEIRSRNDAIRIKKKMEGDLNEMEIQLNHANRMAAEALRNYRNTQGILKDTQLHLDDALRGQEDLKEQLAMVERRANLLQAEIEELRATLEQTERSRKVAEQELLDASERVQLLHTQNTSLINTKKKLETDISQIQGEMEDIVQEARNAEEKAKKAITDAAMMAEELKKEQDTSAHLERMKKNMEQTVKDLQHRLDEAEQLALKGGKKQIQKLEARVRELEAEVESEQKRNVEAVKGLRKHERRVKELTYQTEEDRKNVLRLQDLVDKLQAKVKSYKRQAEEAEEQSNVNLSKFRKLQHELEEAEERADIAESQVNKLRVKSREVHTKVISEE

pKi: 7.40 and 7.60 and 7.10
Substance: myosin subfragment-1 (domain or fragment)
